{"source": "the DeepSol protein solubility set", "data": [{"test": "soluble on expression in E. coli; label from the status in PepcDB or PDB records", "values": [{"sequence": "MGVPAFFRWLTKKYPATVVNANEDRQRDQDGNRVPVDCTQPNPNFQEFDNLYLDMNGIIHPCTHPEDRPAPKNEDEMFALIFEYIDRIYSIVRPRRLLYMAIDGVAPRAKMNQQRSRRFRASKEMAEKEASIEEQRNRLMAEGIAVPPKKKEEAHFDSNCITPGTPFMARLADALRYYIHDRVTNDASWANIEIILSDANVPGEGEHKIMDYVRKQRGNPAHDPNTVHCLCGADADLIMLGIATHEANFNIIREEFVPNQPRACDLCGQYGHELKECRGAENETDLGDDYCKPEQREKNFIFLRIPVLREYLEKELSMPNLPFKFDVERALDDWVFLCFFVGNDFLPHLPSLEIREGAIDRLIKLYKEMVYQMKGYLTKDGIPELDRVEMIMKGLGRVEDEIFKRRQQDEERFQARMCREESPADIASRKRKAEQPLIKPEEEEDEGPKDDIRLYESGWKDRYYRAKFDVGSDDIEFRHRVAWAYVEGLCWVLRYYYQGCASWDWYFPYHYAPFASDFETVGEFQPDFTRPTKPFNPLEQLMSVFPAASKQHLPVEWQKLMIQDDSPIIDLYPADFRIDLNGKKYAWQGVALLPFVDETRLLATLQSVYPTLTAEEKQRNTRGPNRIFIGRNHKSFEFFQQVAESKSDDLVPLDPTLLNGVSGKIAYDSTATAPGLPFVSPVNHDECQDLPTNCGICVLYEDPEYPQDYIFPALRLDGAKEPEKTLKPDDWNDRRDGRYQPQVGFNRNAPRGSLDQSGHRQVHHYVRGGGGGGGGYRGNSYDDRRGGGGGGGGYNDRQDFGRNYGGRDGGGPQRYHDQQQQRQGGYQGGGYGGGYGGGGGGGGGGGGGSYHQPYNQDQRRGGRGGGGGPPGYQRPPYRGGGGGGYHGNSSWR", "soluble on expression in E. coli": "not soluble"}, {"sequence": "MGVPFIRFLNITFDRRGDELTGVLNFDDKLIGNPFLPAIHGGVTAAFLEVTAVITLSWAHLFERIESGDLAPEDILTDENMRFPKTIDFTIDYLRSGLPRDAYARAYISRAGRRYASVRVEAWQDHHDKLYAQGTGHFLMPLEHHHHHH", "soluble on expression in E. coli": "soluble"}, {"sequence": "MGVSLSKGGNVSLTKEAPGLTAVIVGLGWDVRTTTGTDFDLDASALLTNVEGKVANDQNFVFFNNLKSPDGSVEHTGDNITGEGEGDDEQIKVDLATVPADVDKIVFPVSIYDAENRQQSFGQVRNAFIRVVNQAGGAEIARYDLSEDASTETAMVFGELYRNGPEWKFRAIGQGYASGLRGIAQDFGVNV", "soluble on expression in E. coli": "not soluble"}, {"sequence": "MGVYGMEQNFGLISIIMAAYNAENTIEKAVMSVMAQTYTQFELIIINDCSTDKTLSIIKKFEEFDKRIFLINNSYNRGVSYSRRYGLEKARGEWIAILDSDDAWAADKLEKQIRLQKEKNADLVYTGSAFMDSSGNSIEWYLHVPPEIGYRKLLKQNLISNSSALVRKELYMQYYASGDNMHEDFAIWLRILKTGRKAYGIDEPLLIYRFMRKSKSGNKLIAAKMNWNTYRYIGLDVVSRMYYMIWYMFNGLKKYITLNNEVAKV", "soluble on expression in E. coli": "not soluble"}, {"sequence": "MGYKPTQRDIVIIDFAPSKGYEIRKRRPALVMSKDSYNISTNLVIVCPITSLDKERPFLVPIYSEKLHTSDNAVSKVNTLQVYSLDYTEQAQRRIKYVDTLDEETFYEIAQKFLQNFSFAV", "soluble on expression in E. coli": "not soluble"}, {"sequence": "MGYLHIDGRGMKPNGGSRHNPLEAETIAAWLVAHKDDIERHYGEPLYKVVGVVTPFSAQVNAIKMSLRKLEINGKDEQGLLTVGTVHSLQGAERAIVLFSPVYSKHEDGRFLDSNSTILNVAVSRAKDSFLVFGDMDLIEMQPAFSPRGLLAKYLFSSDNNALQFEFQKRQDLISAHTQISTLHGVEQHDEFLNKTLAGAQKKITIISPWLSWQKVEQTGFLASMALARSRGIDITVVTDKNCNIAHVDDDKRQEKQHLLNDAVEKLNKMGIATKLVNRVHSKIVIEDEELLCVGSFNWFSATREDKYQRYDTSLVYRGEGVKNEIKAIYGSLDQRQLMGHHHHHHSH", "soluble on expression in E. coli": "not soluble"}, {"sequence": "MHERERHRIILSATQEKAVVTVQDIAELTDASEATIRRDIASLHVQGKLRRVRGGAEAVHPPQLGNLAARPFRVSESVNIDKKRAIARKAVDLCNDGDAIILNGGTTTFQMVHYMAARRLQVMTNSFAIAEHLVKHSKCNVNVPGGAIYRDQSLILSPFENDAIRNFYARRIFLGAQGVGALGIMESDALVIQSEQKLMRQAEELIVMVDSSKFRKRSSLILCPLENVTTIITDDGISDEAARMVENAGVELLIAGAVAAGKTAGPPDEENSSSVALEHHHHHH", "soluble on expression in E. coli": "not soluble"}, {"sequence": "MHEWGLSEELKIQTKQMIEIAEKELSIMRNAIDKEDECILCKMEDIHHMLANVQTLAATYYIQAYLSPYTESSSFITTAIQHLSARKHGALIVVERNETLEALIQTGTTLNAHLTAPLLESIFYPGNPLHDGAVLVKNNHIVSAANILPLTKSTEVDPELGTRHRAAIGLSEKSDALILVVSEETGRTSFALNGILYTISL", "soluble on expression in E. coli": "soluble"}, {"sequence": "MHHHHHHANASETNVGPMAPRVCVVGSVNMDLTFVVDALPRPGETVLAASLTRTPGGKGANQAVAAARAGAQVQFSGAFGDDPAAAQLRAHLRANAVGLDRTVTVPGPSGTAIIVVDASAENTVLVAPGANAHLTPVPSAVANCDVLLTQLEIPVATALAAARAAQSADAVVMVNASPAGQDRSSLQDLAAIADVVIANEHEANDWPSPPTHFVITLGVRGARYVGADGVFEVPAPTVTPVDTAGAGDVFAGVLAANWPRNPGSPAERLRALRRACAAGALATLVSGVGDCAPAAAAIDAALRANRHNGS", "soluble on expression in E. coli": "soluble"}, {"sequence": "MHHHHHHHHHGGPISKILVANRSEIAIRVFRAANELGIKTVAIWAEEDKLALHRFKADESYQVGRGPHLARDLGPIESYLSIDEVIRVAKLSGADAIHPGYGLLSESPEFVDACNKAGIIFIGPKADTMRQLGNKVAARNLAISVGVPVVPATEPLPDDMAEVAKMAAAIGYPVMLKASWGGGGRGMRVIRSEADLAKEVTEAKREAMAAFGKDEVYLEKLVERARHVESQILGDTHGNVVHLFERDCSVQRRNQKVVERAPAPYLSEAQRQELAAYSLKIAGATNYIGAGTVEYLMDADTGKFYFIEVNPRIQVEHTVTEVVTGIDIVKAQIHILDGAAIGTPQSGVPNQEDIRLNGHALQCRVTTEDPEHNFIPDYGRITAYRSASGFGIRLDGGTSYSGAIITRYYDPLLVKVTAWAPNPLEAISRMDRALREFRIRGVATNLTFLEAIIGHPKFRDNSYTTRFIDTTPELFQQVKRQDRATKLLTYLADVTVNGHPEAKDRPKPLENAARPVVPYANGNGVKDGTKQLLDTLGPKKFGEWMRNEKRVLLTDTTMRDGHQSLLATRMRTYDIARIAGTYSHALPNLLSLECWGGATFDVSMRFLTEDPWERLALIREGAPNLLLQMLLRGANGVGYTNYPDNVVKYFVRQAAKGGIDLFRVFDCLNWVENMRVSMDAIAEENKLCEAAICYTGDILNSARPKYDLKYYTNLAVELEKAGAHIIAVKDMAGLLKPAAAKVLFKALREATGLPIHFHTHDTSGIAAATVLAAVEAGVDAVDAAMDALSGNTSQPCLGSIVEALSGSERDPGLDPAWIRRISFYWEAVRNQYAAFESDLKGPASEVYLHEMPGGQFTNLKEQARSLGLETRWHQVAQAYADANQMFGDIVKVTPSSKVVGDMALMMVSQDLTVADVVSPDREVSFPESVVSMLKGDLGQPPSGWPEALQKKALKGEKPYTVRPGSLLKEADLDAERKVIEKKLEREVSDFEFASYLMYPKVFTDFALASDTYGPVSVLPTPAYFYGLADGEELFADIEKGKTLVIVNQAVSATDSQGMVTVFFELNGQPRRIKVPDRAHGATGAAVRRKAEPGNAAHVGAPMPGVISRVFVSSGQAVNAGDVLVSIEAMKMETAIHAEKDGTIAEVLVKAGDQIDAKDLLAVYGG", "soluble on expression in E. coli": "soluble"}, {"sequence": "MHHHHHHSSGRENLYFQGFRGTDPGDVVIEELFNRIPQANVRTTSEYMQSAADSLVSTSLWNTGQPFRVESELGERPRTLVRGTVLGQEDPYAYLEATDQETGESFEVHVPYFTERPPSNAIKQMKEEVLRLRLLRGIKNQKQAKVHLRFIFPFDLVKDPQKKKMIRVRLDERDMWVLSRFFLYPRMQSNLQTFGEVLLSHSSTHKSLVHHARLQLTLQVIRLLASLHHYGLVHTYLRPVDIVLDQRGGVFLTGFEHLVRDGASAVSPIGRGFAPPETTAERMLPFGQHHPTLMTFAFDTWTLGLAIYWIWCADLPNTDDAALGGSEWIFRSCKNIPQPVRALLEGFLRYPKEDRLLPLQAMETPEYEQLRTELSAALPLYQTDGEPTREGGAPPSGTSQPDEAGAAEAVTAI", "soluble on expression in E. coli": "soluble"}, {"sequence": "MHHHHHHSSGRENLYFQGIPTISELKKDRIIPHVFPNDKIDLNVDLFISFKAGKEVNHGNVLDIAGTGSVPRNIKFSEEPPDGYCFVLFMVDPDYPSRLRPDGKEYIHWVVSGIKTKELIKGTQKNCVTILPYVGPSIKKGTGLHRISFIISLIKEEDKDNITGLPHYKGEKYITRVKFNNYESVHNIAQINNMKIVGYNWCQIE", "soluble on expression in E. coli": "soluble"}, {"sequence": "MHHHHHHSSGRENLYFQGTGQDALVLGFDWGKFLKDHSYKAAPVSCFKHVPLYDQWEDVMKGMKVEVLNSDAVLPSRVYWIASVIQTAGYRVLLRYEGFENDASHDFWCNLGTVDVHPIGWCAINSKILVPPRTIHAKFTDWKGYLMKRLVGSRTLPVDFHIKMVESMKYPFRQGMRLEVVDKSQVSRTRMAVVDTVIGGRLRLLYEDGDSDDDFWCHMWSPLIHPVGWSRRVGHGIKMSERRSDMAHHPTFRKIYCDAVPYLFKKVRAVYTEGGWFEEGMKLEAIDPLNLGNICVATVCKVLLDGYLMICVDGGPSTDGLDWFCYHASSHAIFPATFCQKNDIELTPPKGYEAQTFNWENYLEKTKSKAAPSRLFNMDCPNHGFKVGMKLEAVDLMEPRLICVATVKRVVHRLLSIHFDGWDSEYDQWVDCESPDIYPVGWCELTGYQLQPPVAAEPATPLKAKEATKKKKKQ", "soluble on expression in E. coli": "soluble"}, {"sequence": "MHHHHHHSSGVDLGTENLYFQSMGFETLVVTSEDGITKIMFNRPKKKNAINTEMYHEIMRALKAASKDDSIITVLTGNGDYYSSGNDLTNFTDIPPGGVEEKAKNNAVLLREFVGCFIDFPKPLIAVVNGPAVGISVTLLGLFDAVYASDRATFHTPFSHLGQSPEGCSSYTFPKIMSPAKATEMLIFGKKLTAGEACAQGLVTEVFPDSTFQKEVWTRLKAFAKLPPNALRISKEVIRKREREKLHAVNAEECNVLQGRWLSDECTNAVVNFLSRKSKL", "soluble on expression in E. coli": "soluble"}, {"sequence": "MHHHHHHSSGVDLGTENLYFQSMGLSRVRAVFFDLDNTLIDTAGASRRGMLEVIKLLQSKYHYKEEAEIICDKVQVKLSKECFHPYNTCITDLRTSHWEEAIQETKGGAANRKLAEECYFLWKSTRLQHMTLAEDVKAMLTELRKEVRLLLLTNGDRQTQREKIEACACQSYFDAVVVGGEQREEKPAPSIFYYCCNLLGVQPGDCVMVGDTLETDIQGGLNAGLKATVWINKNGIVPLKSSPVPHYMVSSVLELPALLQSIDCKVSMST", "soluble on expression in E. coli": "soluble"}, {"sequence": "MHHHHHHSSGVDLGTENLYFQSMKYILVTGGVISGIGKGIIASSVGTILKSCGLHVTSIKIDPYINIDAGTFSPYEHGEVFVLDDGGEVDLDLGNYERFLDIRLTKDNNLTTGKIYQYVINKERKGDYLGKTVQVVPHITDAIQEWVMRQALIPVDEDGLEPQVCVIELGGTVGDIESMPFIEAFRQFQFKVKRENFCNIHVSLVPQPSSTGEQKTKPTQNSVRELRGLGLSPDLVVCRCSNPLDTSVKEKISMFCHVEPEQVICVHDVSSIYRVPLLLEEQGVVDYFLRRLDLP", "soluble on expression in E. coli": "soluble"}, {"sequence": "MHHHHHHSSGVDLGTENLYFQSMSVGFIGAGQLAFALAKGFTAAGVLAAHKIMASSPDMDLATVSALRKMGVKLTPHNKETVQHSDVLFLAVKPHIIPFILDEIGADIEDRHIVVSCAAGVTISSIEKKLSAFRPAPRVIRCMTNTPVVVREGATVYATGTHAQVEDGRLMEQLLSSVGFCTEVEEDLIDAVTGLSGSGPAYAFTALDALADGGVKMGLPRRLAVRLGAQALLGAAKMLLHSEQHPGQLKDNVSSPGGATIHALHVLESGGFRSLLINAVEASCIRTRELQSMADQEQVSPAAIKKTILDKVKLDSPAGTAL", "soluble on expression in E. coli": "soluble"}]}]}
